# Assay results: patent US20140378382A1 (WISCONSIN ALUMNI RESEARCH FOUNDATION, published 2014)
# Like-named read-outs stand apart in the source and are kept apart here. Non-standard residues stand in square brackets, D forms with d. No end group written: not given here. β3hW = N[C@H](CC(=O)O)Cc1c[nH]c2ccccc12; β3hE = N[C@@H](CCC(=O)O)CC(=O)O; β3hF = N[C@H](CC(=O)O)Cc1ccccc1; β3hK = NCCCC[C@H](N)CC(=O)O; β3hM = CSCC[C@H](N)CC(=O)O; β3hD = NC(CC(=O)O)CC(=O)O
# T1: human parathyroid hormone receptor 1, wild-type (hPTHR-1) (human, UniProt Q03431 27-593)
# T1 sequence (looked up): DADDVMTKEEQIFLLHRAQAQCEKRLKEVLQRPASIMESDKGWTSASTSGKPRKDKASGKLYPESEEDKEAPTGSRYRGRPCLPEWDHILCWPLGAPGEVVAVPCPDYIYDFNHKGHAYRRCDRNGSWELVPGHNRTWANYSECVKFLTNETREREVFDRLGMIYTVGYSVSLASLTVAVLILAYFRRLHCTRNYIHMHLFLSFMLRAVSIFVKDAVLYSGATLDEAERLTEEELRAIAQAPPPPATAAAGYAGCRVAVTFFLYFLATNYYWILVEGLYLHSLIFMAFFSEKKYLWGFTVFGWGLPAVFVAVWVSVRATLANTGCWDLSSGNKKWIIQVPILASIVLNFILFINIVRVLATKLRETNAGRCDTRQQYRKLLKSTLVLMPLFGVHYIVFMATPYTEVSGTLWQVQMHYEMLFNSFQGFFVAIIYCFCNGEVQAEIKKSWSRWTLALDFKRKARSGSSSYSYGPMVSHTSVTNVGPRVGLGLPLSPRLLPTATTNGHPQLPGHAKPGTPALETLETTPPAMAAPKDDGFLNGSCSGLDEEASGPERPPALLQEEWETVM
# T2: rat parathyroid hormone receptor 1, wild-type (rPTHR-1) (rat, UniProt P25961 27-591)
# T2 sequence (looked up): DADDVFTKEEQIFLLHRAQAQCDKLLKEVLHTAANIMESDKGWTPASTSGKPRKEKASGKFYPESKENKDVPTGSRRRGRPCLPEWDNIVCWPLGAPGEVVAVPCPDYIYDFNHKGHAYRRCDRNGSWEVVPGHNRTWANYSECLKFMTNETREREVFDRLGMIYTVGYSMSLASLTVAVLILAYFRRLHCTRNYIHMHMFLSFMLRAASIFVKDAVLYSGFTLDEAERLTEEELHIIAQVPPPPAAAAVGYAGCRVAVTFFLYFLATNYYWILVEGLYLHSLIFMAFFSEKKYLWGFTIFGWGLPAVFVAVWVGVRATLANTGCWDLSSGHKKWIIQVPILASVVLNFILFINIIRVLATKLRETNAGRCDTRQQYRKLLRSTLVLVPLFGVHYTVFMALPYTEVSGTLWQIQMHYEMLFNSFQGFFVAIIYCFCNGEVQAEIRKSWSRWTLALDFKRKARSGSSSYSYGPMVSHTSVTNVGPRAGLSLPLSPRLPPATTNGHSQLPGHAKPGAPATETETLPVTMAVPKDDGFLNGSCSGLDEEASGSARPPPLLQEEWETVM
# T3: PTHR-1 (species and cells not stated for the assay) (Homo sapiens (Human), UniProt Q03431 27-593)
# T3 sequence: T1 sequence (looked up)
# Assays:
# [1] = target: T1, human parathyroid hormone receptor 1, …; test: cell-based or functional assay
# [2] = target: T2, rat parathyroid hormone receptor 1, …; test: cell-based or functional assay
# [3] = target: T1, human parathyroid hormone receptor 1, …; test: cell-based or functional assay; remark: listed apart in the source
# [4] = target: T2, rat parathyroid hormone receptor 1, …; test: cell-based or functional assay; remark: listed apart in the source
# [5] = target: T3, PTHR-1 (species and cells not stated …); test: cell-based or functional assay
# [6] = target: T2, rat parathyroid hormone receptor 1, …; test: cell-based or functional assay; set-up: AUC-on / AUC-washout: unit not given beside the values
# [7] = target: T3, PTHR-1 (species and cells not stated …); test: cell-based or functional assay; remark: listed apart in the source
# [8] = target: T1, human parathyroid hormone receptor 1, …; test: ratio of R0 IC50 to RG IC50, hPTHR-1
# [9] = target: T2, rat parathyroid hormone receptor 1, …; test: ratio of R0 IC50 to RG IC50, rPTHR-1
# Excerpt: (§1) Binding inhibition constants are expressed as the -log (IC50) and corresponding nanoMolar (nM) values. Values are means (±SEM) of the number of experiments shown (n), each performed in duplicate.
# [10] = target: T1, human parathyroid hormone receptor 1, …; test: R0 state; 125I-PTH(1-34) displacement; COS-7 membranes, hPTHR-1, GTPγS
# Excerpt: (§2) ^aValues are means of n ≧4 experiments, each performed in duplicate.
# [11] = target: T2, rat parathyroid hormone receptor 1, …; test: R0 state; 125I-PTH(1-34) displacement; COS-7 membranes, rPTHR-1, GTPγS
# Excerpt: as §1
# [12] = target: T1, human parathyroid hormone receptor 1, …; test: R0 state; 125I-PTH(1-34) displacement; COS-7 membranes, hPTHR-1, GTPγS; remark: listed apart in the source
# Excerpt: (§3) FIGS. 6A, 6B, 6C, 6D, 6E, and 6F constitute a series of graphs depicting binding of various analogs to the R⁰ and RG forms of human PTHR-1 (hPTHR-1). […] Data are means (±SEM) of n≧4 experiments, each performed in duplicate.
# [13] = target: T2, rat parathyroid hormone receptor 1, …; test: R0 state; 125I-PTH(1-34) displacement; COS-7 membranes, rPTHR-1, GTPγS; remark: listed apart in the source
# Excerpt: as §1
# [14] = target: T1, human parathyroid hormone receptor 1, …; test: RG state; 125I-M-PTH(1-15) displacement; COS-7 membranes, hPTHR-1 + Gαs mutant
# Excerpt: as §2
# [15] = target: T2, rat parathyroid hormone receptor 1, …; test: RG state; 125I-M-PTH(1-15) displacement; COS-7 membranes, rPTHR-1 + Gαs mutant
# Excerpt: as §1
# [16] = target: T1, human parathyroid hormone receptor 1, …; test: RG state; 125I-M-PTH(1-15) displacement; COS-7 membranes, hPTHR-1 + Gαs mutant; remark: listed apart in the source
# Excerpt: as §3
# [17] = target: T2, rat parathyroid hormone receptor 1, …; test: RG state; 125I-M-PTH(1-15) displacement; COS-7 membranes, rPTHR-1 + Gαs mutant; remark: listed apart in the source
# Excerpt: as §1
binder,measurement,setting,value
SVSEIQLMHNLGK[β3hW]LNS[β3hM]ERV[β3hE]WLR[β3hK]KLQ[β3hD]VHN[β3hF]-NH2 (also called α/β-peptide D6) [D6],cAMP EC50,[1],0.13 nM
same,cAMP Max,[1],0.87 relative to PTH(1-34)
same,cAMP EC50,[2],0.33 nM
same,cAMP Max,[2],0.76 relative to PTH(1-34)
same,Fold PTH(1-34),[3],0.76 fold
same,cAMP EC50,[3],0.13 nM
same,cAMP Max,[3],189 cps × 10^-3
same,cAMP pEC50,[3],9.89
same,Fold PTH(1-34),[4],0.79 fold
same,cAMP EC50,[4],0.33 nM
same,cAMP Max,[4],50 cps × 10-3
same,cAMP pEC50,[4],9.48
same,Fold PTH,[5],2.1 fold
same,cAMP EC50,[5],0.17 nM
same,AUC Ratio,[6],1.5
same,AUC-on,[6],100000
same,AUC-washout,[6],130000
same,cAMP response PTH1R/PTH2R,[7],33 ratio
same,R^0/RG,[8],31 ratio
same,R^0/RG,[9],8 ratio
same,IC50,[10],2 nM
same,IC50,[11],6.1 nM
same,-log (IC50),[12],8.69
same,IC50,[12],2 nM
same,-log (IC50),[13],8.22
same,IC50,[13],6.1 nM
same,IC50,[14],0.065 nM
same,IC50,[15],0.81 nM
same,-log (IC50),[16],10.2
same,IC50,[16],0.065 nM
same,-log (IC50),[17],9.09
same,IC50,[17],0.81 nM
